± gives the standard error. Variants at the floor of the assay were thinned out.
B1: glmS ribozyme (parent)
chain: AUAAAAGCGCCAGAACUACAGAAAUGUAGUUGACGAGGAGGAGGUUUAUCGAAUUUUCGGCGGAUGCCUCCAAA

Key:
Conditions in all cases: with glucosamine-6-phosphate
glucosamine-6-phosphate [1] = variants of: B1; assay: self-cleavage kobs at 40 uM GlcN6P; higher = faster cleavage; RNA array
Summary of the method: (§1)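 Barcoded ribozyme variants, transcribed in situ by E. coli RNA polymerase on sequenced MiSeq chips, were followed via a hybridised Cy3 probe at 37 °C. Glucosamine-6-phosphate ranged from 40 μM to 10 mM in HEPES/KCl/Mg(OAc)2 buffer. kobs came from decay fits to per-tile medians, and kcat and KM from weighted Michaelis–Menten fits.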

glucosamine-6-phosphate [2] = variants of: B1; assay: self-cleavage kobs at 160 uM GlcN6P; higher = faster cleavage; RNA array
Summary of the method: as §1

glucosamine-6-phosphate [3] = variants of: B1; assay: self-cleavage kobs at 640 uM GlcN6P; higher = faster cleavage; RNA array
Summary of the method: as §1

glucosamine-6-phosphate [4] = variants of: B1; assay: self-cleavage kobs at 2500 uM GlcN6P; higher = faster cleavage; RNA array
Summary of the method: as §1

glucosamine-6-phosphate [5] = variants of: B1; assay: self-cleavage kobs at 10000 uM GlcN6P; higher = faster cleavage; RNA array
Summary of the method: as §1

| Variant | self-cleavage kobs at 40 uM GlcN6P (glucosamine-6-phosphate [1]) [s⁻¹] | self-cleavage kobs at 160 uM GlcN6P (glucosamine-6-phosphate [2]) [s⁻¹] | self-cleavage kobs at 640 uM GlcN6P (glucosamine-6-phosphate [3]) [s⁻¹] | self-cleavage kobs at 2500 uM GlcN6P (glucosamine-6-phosphate [4]) [s⁻¹] | self-cleavage kobs at 10000 uM GlcN6P (glucosamine-6-phosphate [5]) [s⁻¹] |
| --- | --- | --- | --- | --- | --- |
| C11G A39U G60A | < 1e-05 | < 1e-05 | < 1e-05 | < 1e-05 | – |
| A12C G43U C71A | < 1e-05 | – | – | – | – |
| A12C U56G C68A C70A | < 1e-05 | – | – | – | – |
| A12G C58U C61U | < 1e-05 | – | – | – | – |
| C11G U30C | < 1e-05 | – | < 1e-05 | – | – |
| C11U A36C C61U | < 1e-05 | – | < 1e-05 | – | – |
| C11A C16A U47C C61U | < 1e-05 | – | – | < 1e-05 | – |
| A12C U46C C50G G63U C67G C68U | 0.000202 ± 7.2e-05 | – | – | – | 0.000454 ± 0.00012 |
| C11U A48U G51U | < 1e-05 | – | – | – | – |
| A12C G29U | 0.000186 ± 2.6e-05 | 0.000725 ± 0.00022 | 0.00225 ± 0.00065 | 0.00483 ± 0.0017 | 0.031 ± 0.014 |
| A12G A14U G38A | < 1e-05 | – | – | – | < 1e-05 |
| A12C G43C | < 1e-05 | < 1e-05 | < 1e-05 | – | – |
| A12G C61A C70U | < 1e-05 | – | – | – | < 1e-05 |
| A12U G44C U65A | < 1e-05 | – | – | – | – |
| A12G C61G | < 1e-05 | – | – | – | < 1e-05 |
| A12U A14G C16G | 0.000643 ± 0.00021 | – | – | – | – |
| C11A C34U | < 1e-05 | – | < 1e-05 | – | – |
| C11G U56G A64U | < 1e-05 | < 1e-05 | – | < 1e-05 | – |
| C11G A52C | < 1e-05 | < 1e-05 | < 1e-05 | < 1e-05 | < 1e-05 |

| Variant | self-cleavage kobs at 40 uM GlcN6P (glucosamine-6-phosphate [1]) [s⁻¹] | self-cleavage kobs at 160 uM GlcN6P (glucosamine-6-phosphate [2]) [s⁻¹] | self-cleavage kobs at 640 uM GlcN6P (glucosamine-6-phosphate [3]) [s⁻¹] | self-cleavage kobs at 2500 uM GlcN6P (glucosamine-6-phosphate [4]) [s⁻¹] | self-cleavage kobs at 10000 uM GlcN6P (glucosamine-6-phosphate [5]) [s⁻¹] |
| --- | --- | --- | --- | --- | --- |
| A12C G35U | < 1e-05 | < 1e-05 | < 1e-05 | < 1e-05 | < 1e-05 |
| C11G G35C | < 1e-05 | < 1e-05 | < 1e-05 | < 1e-05 | < 1e-05 |
| C11G C16A G38C | < 1e-05 | < 1e-05 | – | – | < 1e-05 |
| C11U C50G U65A C68A | 8.61e-05 ± 2.8e-05 | – | – | – | – |
| A12U A14G G29A | 0.00101 ± 0.00019 | – | – | – | 0.00831 ± 0.0018 |
| A12U A36G U54A | < 1e-05 | – | – | – | – |
| C11U C58G C67U U69G | 3.48e-05 ± 1.2e-05 | – | – | – | 6.72e-05 ± 1.3e-05 |
| C10U C34G G41U A52U C58A G66A C71A | < 1e-05 | – | – | – | – |
| C11G G13U | < 1e-05 | < 1e-05 | < 1e-05 | < 1e-05 | < 1e-05 |
| C11G G43C A64U | < 1e-05 | – | – | – | < 1e-05 |
| C11G A12C G38A | < 1e-05 | – | – | – | – |
| C10U G35C A52U | < 1e-05 | – | – | – | – |
| C11U A52U G60C | < 1e-05 | – | < 1e-05 | – | < 1e-05 |
| C11A U69G | 5.85e-05 ± 9.2e-06 | 0.000398 ± 0.00018 | 0.000166 ± 4.5e-05 | – | 5.17e-05 ± 1.1e-05 |
| C11G A15U C34G A39U A48G | < 1e-05 | – | < 1e-05 | < 1e-05 | – |
| A12U G38C A52G C58A | < 1e-05 | – | – | – | – |
| C10U G41A | < 1e-05 | < 1e-05 | < 1e-05 | < 1e-05 | < 1e-05 |
| A12C A36G A64C | < 1e-05 | – | < 1e-05 | – | < 1e-05 |
| C11A C68A | < 1e-05 | – | – | – | – |

| Variant | self-cleavage kobs at 40 uM GlcN6P (glucosamine-6-phosphate [1]) [s⁻¹] | self-cleavage kobs at 160 uM GlcN6P (glucosamine-6-phosphate [2]) [s⁻¹] | self-cleavage kobs at 640 uM GlcN6P (glucosamine-6-phosphate [3]) [s⁻¹] | self-cleavage kobs at 2500 uM GlcN6P (glucosamine-6-phosphate [4]) [s⁻¹] | self-cleavage kobs at 10000 uM GlcN6P (glucosamine-6-phosphate [5]) [s⁻¹] |
| --- | --- | --- | --- | --- | --- |
| A12U G32U C50G | 7.78e-05 ± 3.4e-05 | – | – | – | – |
| C11A C16G U54A C68A | 6.79e-05 ± 2.4e-05 | – | – | – | 5.11e-05 ± 2e-05 |
| A12U G40U C61A | < 1e-05 | – | – | – | < 1e-05 |
| C11G U54C C70U | < 1e-05 | – | – | – | < 1e-05 |
| C11G A15G A53C | < 1e-05 | – | – | < 1e-05 | – |
| A12C G32U C71A | < 1e-05 | – | – | – | – |
| C11U A33C A52G C67A | < 1e-05 | – | – | – | – |
| A12U A36U G44A | < 1e-05 | – | – | – | – |
| A12U U30A C70U | 0.000748 ± 0.00013 | – | – | – | 0.0461 ± 0.017 |
| C11A G59A G60A A64U | < 1e-05 | – | – | – | – |
| A12G G41U A52G U54A | < 1e-05 | – | – | – | – |
| A12U A14U G32U | < 1e-05 | – | – | – | 8.48e-05 ± 2e-05 |
| C10U G35U C67U | < 1e-05 | – | – | – | – |
| C11G A33C | < 1e-05 | < 1e-05 | – | < 1e-05 | – |
| A12C G38C G44A A64G | < 1e-05 | – | – | < 1e-05 | – |
| C10U G37C G44U U65C | < 1e-05 | < 1e-05 | < 1e-05 | < 1e-05 | – |
| A12U G41U A42G | 0.000102 ± 1.6e-05 | – | – | – | 0.00149 ± 0.0003 |
| C11A A42G U56A | < 1e-05 | – | – | 2.82e-05 ± 1.3e-05 | 7.2e-05 ± 1.5e-05 |
| A12G G29U G44A G63A | < 1e-05 | – | – | – | < 1e-05 |

From the supplement of paper PMC7125110
